Measured values from patent publication EP4442276A1 (INSTITUT PASTEUR, dated 2024).

Biological target: Spike of SARS-CoV-2 reference D614G strain (hCoV-19/France/GE1973/2020) (SARS-CoV-2, UniProt P0DTC2 14-1273)
Assay: cell-based or functional assay

B1: Cv2.3132 IgG antibody (antibody, V domains shown)
VH: EVQLVESGGGLVKPGGSLRLSCAASGFTFSDYYMSWIRQAPGKGLEWVSYISSSGSVQYYADSVKGRFTISRDNAKNSLYLQMNSLRAEDTAVYYCARYYYDSSGYWKRLDYWGQGTLVTVSS
VL: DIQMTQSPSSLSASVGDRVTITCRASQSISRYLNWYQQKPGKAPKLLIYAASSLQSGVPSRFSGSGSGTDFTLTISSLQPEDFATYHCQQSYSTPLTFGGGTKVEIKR
notes: also called anti-HR2 antibody Cv2.3132
**Q.** B1 was tested. Which “IC50, S-Fuse neutralization assay” value did it give?
**A.** 35.4 µg/mL
